This note sets out measurements from US20250207119A1.

For assay [1], the target named is ADAM17 from R & D Systems (UniProt P78536). As to the kind of experiment: cell-based or functional assay.
Assay [2] deals with Human ADAM10 from R & D Systems (human) (UniProt O14672). Put plainly: cell-based or functional assay.
Human ADAM10 from R & D Systems (human), sequence (O14672 214-672 limits assumed): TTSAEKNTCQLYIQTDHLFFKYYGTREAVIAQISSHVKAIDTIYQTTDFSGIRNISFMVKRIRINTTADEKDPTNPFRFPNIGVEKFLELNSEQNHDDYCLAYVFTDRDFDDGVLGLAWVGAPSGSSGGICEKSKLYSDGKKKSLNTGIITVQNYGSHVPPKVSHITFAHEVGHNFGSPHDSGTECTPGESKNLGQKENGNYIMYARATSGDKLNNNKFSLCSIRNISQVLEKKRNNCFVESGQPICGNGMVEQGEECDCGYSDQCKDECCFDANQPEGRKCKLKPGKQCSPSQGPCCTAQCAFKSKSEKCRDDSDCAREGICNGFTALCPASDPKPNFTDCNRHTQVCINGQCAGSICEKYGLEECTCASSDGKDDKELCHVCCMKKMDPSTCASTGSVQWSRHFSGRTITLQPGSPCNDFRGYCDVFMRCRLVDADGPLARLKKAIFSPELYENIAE

ADAM17 from R & D Systems, sequence (P78536 215-671 limits assumed): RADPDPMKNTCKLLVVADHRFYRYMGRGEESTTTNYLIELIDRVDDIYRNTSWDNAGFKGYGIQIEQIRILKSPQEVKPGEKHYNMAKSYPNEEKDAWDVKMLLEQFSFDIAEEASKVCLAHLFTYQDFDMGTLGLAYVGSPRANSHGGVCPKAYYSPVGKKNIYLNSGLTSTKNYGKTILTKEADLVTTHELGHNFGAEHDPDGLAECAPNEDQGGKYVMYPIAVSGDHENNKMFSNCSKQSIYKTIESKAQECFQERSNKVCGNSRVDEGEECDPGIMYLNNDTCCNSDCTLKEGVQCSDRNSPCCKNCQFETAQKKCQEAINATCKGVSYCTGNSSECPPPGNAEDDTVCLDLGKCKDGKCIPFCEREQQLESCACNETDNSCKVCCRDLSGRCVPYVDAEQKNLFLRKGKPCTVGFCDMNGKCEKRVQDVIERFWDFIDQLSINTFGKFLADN

B1: Cys151-pegylated SEQ ID NO: 1 (peptide, not shown: small tags and cut ends)
chain: NPLNKYIRHYEGLSYNVDSLHQKHQRAKRAVSHEDQFLRLDFHAHGRHFNLRMKRDTSLFSDEFKVETSNKVLDYDTSHIYTGHIYGEEGSFSHGSVIDGRFEGFIQTRGGTFYVEPAERYIKDRTLPFHSVIYHEDDINYPHKYGPQGGCADHSVFERMRKYQMTGVEEVTQIPQEEHAANGPELLRK
modifications: 10 kDa maleimide PEG on Cys151
In turn, B1 displayed a percent inhibition of ADAM17 activity in assay [1] of 33 % at 6.7 µM. Also, in assay [2], the IC50 (nM), inhibition of ADAM10 cleavage of the fluorescent substrate PEPDAB064 came out at 49 nM.
